# Reference: publication PMC2628428 (Molecular Microbiology, 2008)
# B1: CetB (natural protein, UniProt Q0P967 1-165, looked up)
# chain: MSREIFLQEDSLITSKTDLKGKIVYANDDFLKYAGYTMGEVLNKPHNIVRHEEMPKTVFKYLWDYMKEGKEIFAYVKNKTKDNNYYWVFANVTPSIDVNNNIIGYYSVRRMPNKSAISTIESLYSDLLRAEQQQGLNKGVEMLKNFCKDADKTYNELIFSLQEAK
# Target: the molecule itself
# Test: cross-linking
protein,measurement,value
B1,stoichiometry N,2
